Measurements published in the supplement of paper PMC7125110.
± gives the standard error. For part of these data: This sample holds only a part of the variants without activity.

B1: glmS ribozyme (parent)
chain: AUAAAAGCGCCAGAACUACAGAAAUGUAGUUGACGAGGAGGAGGUUUAUCGAAUUUUCGGCGGAUGCCUCCAAA

Tests used:
Conditions in all cases: with glucosamine-6-phosphate
[1] = variants of: B1; assay: kcat; higher = faster cleavage; RNA array
How it was run: (§1)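 In situ transcription by E. coli RNA polymerase produced barcoded ribozyme variants on sequenced MiSeq chips, and a hybridised Cy3 probe tracked them at 37 °C. Glucosamine-6-phosphate was flowed in at 40 μM to 10 mM in HEPES/KCl/Mg(OAc)2 buffer. kcat and KM were taken from weighted Michaelis–Menten fits of kobs values from exponential decay fits.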

[2] = variants of: B1; assay: KM; higher = weaker cofactor use; RNA array
How it was run: as §1

[3] = variants of: B1; assay: self-cleavage kobs at 640 uM GlcN6P; higher = faster cleavage; RNA array
How it was run: as §1

[4] = variants of: B1; assay: self-cleavage kobs at 2500 uM GlcN6P; higher = faster cleavage; RNA array
How it was run: as §1

[5] = variants of: B1; assay: self-cleavage kobs at 10000 uM GlcN6P; higher = faster cleavage; RNA array
How it was run: as §1

[6] = variants of: B1; assay: self-cleavage kobs at 40 uM GlcN6P; higher = faster cleavage; RNA array
How it was run: as §1

[7] = variants of: B1; assay: self-cleavage kobs at 160 uM GlcN6P; higher = faster cleavage; RNA array
How it was run: as §1

Variant | kcat [1] | KM [2] | self-cleavage kobs at 640 uM GlcN6P [3] | self-cleavage kobs at 2500 uM GlcN6P [4] | self-cleavage kobs at 10000 uM GlcN6P [5] | self-cleavage kobs at 40 uM GlcN6P [6] | self-cleavage kobs at 160 uM GlcN6P [7]
A14C G32C | 0.000467 ± 2.4e-05 s⁻¹ | 5350 ± 480 µM | 4.87e-05 ± 1.2e-05 s⁻¹ | 0.000149 ± 2.1e-05 s⁻¹ | 0.000304 ± 3.5e-05 s⁻¹ |  | 
A14U A64U G66C | 1.84e-05 ± 4.5e-06 s⁻¹ |  |  |  |  |  | 
A14G A39U | 0.0511 ± 0.013 s⁻¹ | 1450 ± 480 µM | 0.0183 ± 0.0062 s⁻¹ | 0.0365 ± 0.014 s⁻¹ | 0.0395 ± 0.019 s⁻¹ | 0.00167 ± 0.00051 s⁻¹ | 0.00416 ± 0.0013 s⁻¹
A15G C67A | 0.00627 ± 0.0024 s⁻¹ |  | 0.00406 ± 0.0007 s⁻¹ | 0.00376 ± 0.00071 s⁻¹ | 0.00896 ± 0.0018 s⁻¹ | 0.000534 ± 0.00011 s⁻¹ | 0.000961 ± 0.00011 s⁻¹
A14G C68A U69G | 0.000118 ± 2.9e-05 s⁻¹ |  | 0.000112 ± 2.8e-05 s⁻¹ | 9.76e-05 ± 1.8e-05 s⁻¹ |  |  | 
A14U U31G | 0.00512 ± 0.0017 s⁻¹ | 2230 ± 1100 µM | 0.00115 ± 0.0003 s⁻¹ | 0.00273 ± 0.0005 s⁻¹ | 0.00424 ± 0.0007 s⁻¹ | 0.000142 ± 2.1e-05 s⁻¹ | 0.000241 ± 5.5e-05 s⁻¹
A14G U57C | 0.000646 ± 0.00012 s⁻¹ | 2530 ± 740 µM | 0.000142 ± 1.8e-05 s⁻¹ | 0.000276 ± 4.7e-05 s⁻¹ | 0.000577 ± 0.0001 s⁻¹ |  | 3.29e-05 ± 1.4e-05 s⁻¹
A14G A64G U65A | 0.00407 ± 0.0014 s⁻¹ |  | 0.00307 ± 0.0012 s⁻¹ | 0.00271 ± 0.0008 s⁻¹ | 0.00718 ± 0.0031 s⁻¹ | 0.000284 ± 0.0001 s⁻¹ | 0.000621 ± 0.00019 s⁻¹
A15C A42U | 1.58e-05 ± 3.7e-06 s⁻¹ |  |  |  |  | < 1e-05 s⁻¹ | < 1e-05 s⁻¹
A14U U45G | 0.00111 ± 0.00014 s⁻¹ | 1850 ± 400 µM | 0.00033 ± 5.4e-05 s⁻¹ | 0.000633 ± 0.00013 s⁻¹ | 0.000917 ± 0.00013 s⁻¹ |  | 8.17e-05 ± 2.1e-05 s⁻¹
A14U U45C | 0.000739 ± 0.00014 s⁻¹ | 3320 ± 1200 µM | 0.000105 ± 1.9e-05 s⁻¹ | 0.000436 ± 6.7e-05 s⁻¹ | 0.000531 ± 6e-05 s⁻¹ |  | 
A14G U31C C71A | 0.00296 ± 0.00085 s⁻¹ | 1430 ± 590 µM |  | 0.00227 ± 0.00096 s⁻¹ | 0.00241 ± 0.00085 s⁻¹ | 0.000143 ± 6.1e-05 s⁻¹ | 0.000251 ± 7.7e-05 s⁻¹
A14G A36U | 1.56e-05 ± 2.2e-07 s⁻¹ |  |  |  |  | < 1e-05 s⁻¹ | < 1e-05 s⁻¹
A15G A53U | 0.0369 ± 0.0054 s⁻¹ | 2500 ± 470 µM | 0.00647 ± 0.002 s⁻¹ | 0.0176 ± 0.0065 s⁻¹ | 0.0306 ± 0.0073 s⁻¹ | 0.000575 ± 0.00011 s⁻¹ | 0.0027 ± 0.00073 s⁻¹
A15C C16A | 0.00213 ± 0.00077 s⁻¹ |  | 0.000522 ± 8e-05 s⁻¹ | 0.000888 ± 0.00013 s⁻¹ | 0.00248 ± 0.00031 s⁻¹ | 5.77e-05 ± 8.7e-06 s⁻¹ | 0.000139 ± 3e-05 s⁻¹
A14C U56C | 0.000932 ± 0.00029 s⁻¹ | 4280 ± 2000 µM | 0.00014 ± 1.8e-05 s⁻¹ | 0.000275 ± 4.5e-05 s⁻¹ | 0.000754 ± 0.00012 s⁻¹ |  | 3.09e-05 ± 1.5e-05 s⁻¹
A15G A39C | 0.0119 ± 0.0054 s⁻¹ |  | 0.0011 ± 0.00014 s⁻¹ | 0.00446 ± 0.00072 s⁻¹ | 0.00811 ± 0.00088 s⁻¹ | 0.000149 ± 1.5e-05 s⁻¹ | 0.000242 ± 6.6e-05 s⁻¹
A15G A39U | 0.0505 ± 0.019 s⁻¹ | 4740 ± 2300 µM | 0.00551 ± 0.001 s⁻¹ | 0.0136 ± 0.0025 s⁻¹ | 0.0387 ± 0.0051 s⁻¹ | 0.0006 ± 7.9e-05 s⁻¹ | 0.00146 ± 0.00026 s⁻¹
A14C G29A | 0.000725 ± 5.3e-05 s⁻¹ | 2290 ± 270 µM | 0.000166 ± 2.4e-05 s⁻¹ | 0.000389 ± 9.3e-05 s⁻¹ | 0.00058 ± 9.2e-05 s⁻¹ |  | 4.05e-05 ± 1.5e-05 s⁻¹
A15C C16A G62U | < 1e-05 s⁻¹ |  |  |  |  | < 1e-05 s⁻¹ | 
A14U U31G A64G | 0.00476 ± 0.0018 s⁻¹ |  | 0.000996 ± 0.00037 s⁻¹ | 0.00162 ± 0.00048 s⁻¹ | 0.00468 ± 0.0012 s⁻¹ | 6.69e-05 ± 1.5e-05 s⁻¹ | 
A14C U57A | 0.00019 ± 1.7e-05 s⁻¹ |  |  | 3.61e-05 ± 1.6e-05 s⁻¹ | 9.25e-05 ± 2.2e-05 s⁻¹ |  | 
A14C C67U | 0.00159 ± 0.00047 s⁻¹ | 1720 ± 820 µM | 0.000511 ± 6e-05 s⁻¹ | 0.000783 ± 8.1e-05 s⁻¹ | 0.00184 ± 0.00023 s⁻¹ | 5.24e-05 ± 9e-06 s⁻¹ | 0.000119 ± 1.7e-05 s⁻¹
A14C C67A | 0.00149 ± 0.00032 s⁻¹ | 1850 ± 600 µM | 0.000337 ± 4.4e-05 s⁻¹ | 0.00079 ± 0.00013 s⁻¹ | 0.00146 ± 0.00024 s⁻¹ | 3.89e-05 ± 9.3e-06 s⁻¹ | 0.000145 ± 2.4e-05 s⁻¹
A14C C67G | 0.000353 ± 6.7e-05 s⁻¹ | 2730 ± 860 µM | 6.56e-05 ± 5.7e-06 s⁻¹ | 0.000156 ± 1.5e-05 s⁻¹ | 0.000293 ± 2.8e-05 s⁻¹ |  | 3.67e-05 ± 7.3e-06 s⁻¹
A15C U45G | 0.000779 ± 0.00013 s⁻¹ | 1570 ± 400 µM | 0.000218 ± 2.9e-05 s⁻¹ | 0.000568 ± 8.2e-05 s⁻¹ | 0.000562 ± 0.00014 s⁻¹ |  | 7.06e-05 ± 1.5e-05 s⁻¹
A14G U56A | 0.121 ± 0.022 s⁻¹ | 1930 ± 400 µM | 0.0275 ± 0.0058 s⁻¹ | 0.0642 ± 0.024 s⁻¹ | 0.126 ± 0.053 s⁻¹ | 0.00249 ± 0.00036 s⁻¹ | 0.00984 ± 0.0021 s⁻¹
A14U C50G C68A | 7.35e-05 ± 2e-05 s⁻¹ |  | 0.000122 ± 2.5e-05 s⁻¹ | 7.66e-05 ± 2.9e-05 s⁻¹ | 5.56e-05 ± 1.5e-05 s⁻¹ | 5.1e-05 ± 1.3e-05 s⁻¹ | 
